# Measurements as given in IntAct's records for PubMed 15665853.
# B1: Spindle assembly abnormal protein 5 (Caenorhabditis elegans), Q20010 (parent)
# chain: MNNYDDLPCSIYFKKPTVQEFVDQPRVFEDSEVPAFQEVLQLPQERTKPPVPSTQPIVAAVEVAKKKSCLSAPKPRKEPPSHPALRQKTVAFGKTVNVSQTVEGTSRNSKKVLASTMSAQNTTTTEEQAAENWRDAMKTELQTIRTEIQEETARRQEELNAQNLVKMQELMSNFFQKITIPKQQAIEPVEKDKENFHESPRQSRQQKPASKIASAREVIKRDGVIPPEALTIIEQRLRSDPMFRQQIDNVLADAECDANRAAYSPPPPMSEVRYGSGVNPALMRETLTVERSIRYDNGLASIDSRQWTNERRDNRAPDSYRTYEPDQPCHSLYQKGQSISYYPSEAAGKTTARNNRTGYYVEDSSDHEEDVVVNKRGQNYHEQAVPETPAERERRIREKYARRK
# partner: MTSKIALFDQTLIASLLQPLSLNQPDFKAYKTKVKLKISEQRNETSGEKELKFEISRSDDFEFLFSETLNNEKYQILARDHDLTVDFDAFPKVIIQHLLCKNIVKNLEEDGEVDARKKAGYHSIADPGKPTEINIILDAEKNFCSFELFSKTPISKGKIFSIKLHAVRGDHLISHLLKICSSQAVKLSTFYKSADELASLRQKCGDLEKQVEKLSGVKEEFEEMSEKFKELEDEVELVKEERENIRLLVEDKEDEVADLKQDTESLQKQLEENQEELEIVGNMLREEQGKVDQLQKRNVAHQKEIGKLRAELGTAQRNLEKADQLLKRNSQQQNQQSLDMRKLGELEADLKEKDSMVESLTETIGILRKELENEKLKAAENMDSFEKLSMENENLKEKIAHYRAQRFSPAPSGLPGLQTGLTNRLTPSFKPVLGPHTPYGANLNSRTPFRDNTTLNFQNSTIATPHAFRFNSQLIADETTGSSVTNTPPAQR
# Variants of: B1
# Details: with sas6_caeel sas-6, O62479
row,effect of a mutation on the interaction,Variant
1,decreasing interaction,R397C
